Test results taken from publication PMC4865318 (Molecular Biology of the Cell, 2016).

T1: MBP-UNC-15 (221–873) (C. elegans, UniProt P10567 221-872)
T1 sequence (looked up): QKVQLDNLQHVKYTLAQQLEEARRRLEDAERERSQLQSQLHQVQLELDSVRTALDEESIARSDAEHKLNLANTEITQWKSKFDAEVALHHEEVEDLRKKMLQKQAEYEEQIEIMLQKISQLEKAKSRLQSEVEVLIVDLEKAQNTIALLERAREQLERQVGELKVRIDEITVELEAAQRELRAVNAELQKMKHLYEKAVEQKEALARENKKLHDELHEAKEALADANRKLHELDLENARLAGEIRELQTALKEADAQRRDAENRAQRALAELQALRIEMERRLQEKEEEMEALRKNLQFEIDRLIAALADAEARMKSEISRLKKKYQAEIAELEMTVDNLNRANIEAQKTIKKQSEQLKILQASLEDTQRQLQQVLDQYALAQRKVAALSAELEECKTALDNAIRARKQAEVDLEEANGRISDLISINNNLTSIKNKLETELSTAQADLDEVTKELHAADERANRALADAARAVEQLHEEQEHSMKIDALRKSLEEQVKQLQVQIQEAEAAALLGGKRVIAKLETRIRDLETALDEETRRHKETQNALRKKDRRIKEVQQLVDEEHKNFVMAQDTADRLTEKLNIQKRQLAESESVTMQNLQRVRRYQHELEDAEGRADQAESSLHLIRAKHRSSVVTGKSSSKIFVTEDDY

T2: MBP-UNC-15 (294–376) (C. elegans, UniProt P10567 294-376)
T2 sequence (looked up): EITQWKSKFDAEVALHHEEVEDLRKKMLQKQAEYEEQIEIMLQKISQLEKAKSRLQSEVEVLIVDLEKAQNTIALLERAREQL


How the values were obtained:
[1] = target: T1, MBP-UNC-15 (221–873); assay: far-Western
[2] = target: T2, MBP-UNC-15 (294–376); assay: BLI

| binding result [1] | Kd [2] | koff [2] | kon [2] | Binder |
| --- | --- | --- | --- | --- |
| binds |  |  |  | GST-UNC-89 (1–500) (domain or fragment, C. elegans, UniProt O01761 1-500, looked up) MASRRQKQFDRKYSSYRKFTATEDVNYSTHSSRSSYRSESLTSRTDGRGRSTSSEIIAGSESRSYPVYIAIQDYTPDKEDVEAIPLEQGQIVEVLDKKNSVRWLVRTKARPPRSGWVPGSYFETPTEFYKQRRRTREIENVSLSDEQAALVKRDQVYHELLRSEEEFVSSLRTCVDDYIKVLDDPEVPEAVKKNREELTLNIPELYNFHANVMLKGLNYYSDDPGKVGQTFVRLEKDFESHVEFYKQYADTLKLLEEPEIKRFFEGLSAKNDAGASSFVDHVKEIADRMVQYQNYFKEFVKYSARAHGSSKSIQKALELVTTIPQRVHDLEFTNNLKQHPGDTGKLGRIIRHDAFQVWEGDEPPKLRYVFLFRNKIMFTEQDASTSPPSYTHYSSIRLDKYNIRQHTTDEDTIVLQPQEPGLPSFRIKPKDFETSEYVRKAWLRDIAEEQEKYAAERDAISMTATSEMTASSVDFDMNASDQQSEFSEWSGSRKSSLFPG |
| binds |  |  |  | GST-UNC-89 (1–151) (domain or fragment, C. elegans, UniProt O01761 1-151, looked up) MASRRQKQFDRKYSSYRKFTATEDVNYSTHSSRSSYRSESLTSRTDGRGRSTSSEIIAGSESRSYPVYIAIQDYTPDKEDVEAIPLEQGQIVEVLDKKNSVRWLVRTKARPPRSGWVPGSYFETPTEFYKQRRRTREIENVSLSDEQAALV |
|  | 1100 nM | 0.00015 s⁻¹ | 143 M⁻¹ s⁻¹ | GST-UNC-89 (58–131) (domain or fragment, C. elegans, UniProt O01761 58-131, looked up) AGSESRSYPVYIAIQDYTPDKEDVEAIPLEQGQIVEVLDKKNSVRWLVRTKARPPRSGWVPGSYFETPTEFYKQ |
